Measurements as given in patent publication US7871610B2, “Antibodies to Tie1 ectodomain” (Dyax Corp., priority 2003, dated 2011).

Experiments:
Tie1 = Tie1 (Homo sapiens, UniProt P35590); assay: Confocal microscopy staining of HUVEC; type: binding; design: endogenous in cells; host or cells: HUVEC; details: biotinylated antibody 10 μg/ml, fixed cells
Procedure: We analyzed the staining pattern of E3 in HUVECS using confocal microscopy. HUVEC were trypsinised, washed with PBS and spotted at a density of 60 000 cells on a gelatine coated microscope slide and incubated for 24 hours in a humidified incubator at 37° C. Cells were air dried and fixed with 4% paraformaldehyde for 20 minutes at room temperature. The slides were washed with PBS. The slides were incubated with 10% Heat inactivated human serum (incubation buffer).
For measuring specific binding to Tie-1, biotinylated antibody E3 and biotinylated negative control antibody A2 were used at a concentration of 10 μg/ml and incubated for 1 hour at room temperature. Slides were washed twice with PBS. Then, Strepatvidin-R-phycoerythrin (Dako, Glostrup, Denmark) was added and incubated for 1 hour at room temperature. After the last incubation and washing detection of bound antibodies was performed by means of confocal microscopy.

Mouse Tie 1-Fc = target: T1, Mouse Tie 1-Fc (Mus musculus, UniProt Q06806); assay: BIAcore, coated E3 IgGs with recombinant mouse Tie-1 Fc; type: binding; details: IgG, mouse Tie1-Fc
T1 sequence (Q06806 23-755 limits assumed): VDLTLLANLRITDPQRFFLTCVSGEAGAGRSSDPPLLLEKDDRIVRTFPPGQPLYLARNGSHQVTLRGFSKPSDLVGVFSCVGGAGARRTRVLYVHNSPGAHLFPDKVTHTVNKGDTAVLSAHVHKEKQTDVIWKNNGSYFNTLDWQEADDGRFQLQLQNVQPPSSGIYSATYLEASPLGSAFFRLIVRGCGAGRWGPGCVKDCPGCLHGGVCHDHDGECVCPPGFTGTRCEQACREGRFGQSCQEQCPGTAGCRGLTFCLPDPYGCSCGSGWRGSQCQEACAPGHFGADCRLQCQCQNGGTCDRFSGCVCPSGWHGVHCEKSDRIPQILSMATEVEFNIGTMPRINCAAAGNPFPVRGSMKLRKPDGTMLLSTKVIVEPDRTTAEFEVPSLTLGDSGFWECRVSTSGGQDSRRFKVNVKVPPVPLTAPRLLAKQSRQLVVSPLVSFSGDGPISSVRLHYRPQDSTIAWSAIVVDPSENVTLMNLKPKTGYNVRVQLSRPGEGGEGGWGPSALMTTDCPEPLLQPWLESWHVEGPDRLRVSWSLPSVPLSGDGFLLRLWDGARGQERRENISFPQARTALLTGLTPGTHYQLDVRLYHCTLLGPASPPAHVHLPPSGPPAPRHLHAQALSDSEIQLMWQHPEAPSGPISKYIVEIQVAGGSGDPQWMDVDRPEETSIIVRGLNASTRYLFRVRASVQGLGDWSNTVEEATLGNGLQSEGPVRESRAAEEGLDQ
Procedure: In order to evaluate if the binding behavior had been affected in any way by the conversion of the somatic mutations back to germline, the germlined antibody was produced and tested as a IgG. The germlined E3 was reformatted to an IgG as described. This was then used to transiently transfect HEK293T cells using established procedures. The IgG was purified from the culture supernatant using protein A column chromatography using established procedures and the subsequent IgG was then tested for binding activity using surface plasmon resonance (BIAcore). The germlined E3 IgG1 stock solution 0.63 mg/ml (2146-002) was diluted 1/50 in a buffer of pH 4.5 and the parental E3 IgG1 stock solution 0.56 mg/ml (2143-001) was diluted 1/50 in a buffer of pH 4.5. The IgG were directly coated via onto a CM5 chip. The surface of the chips was activated with a 7 minute pulse of 0.05M NHS/0.2M EDC and the IgG was flowed over until 780RU germlined E3-IgG and 728 non germlined E3 IgG was coated onto the surface. All flow cells were subsequently deactivated with a 7 minute pulse of 1M ethanolamine hydrochloride pH8.5. All analysis was performed in HBS buffer. […] All samples were run and analyzed in duplicate
Sensorgrams were analyzed using the simultaneous ka/kd fitting program with 1:1 model in the BIAEVALUATION™ software 3.1.

Sequence of Tie1 (P35590 22-1138): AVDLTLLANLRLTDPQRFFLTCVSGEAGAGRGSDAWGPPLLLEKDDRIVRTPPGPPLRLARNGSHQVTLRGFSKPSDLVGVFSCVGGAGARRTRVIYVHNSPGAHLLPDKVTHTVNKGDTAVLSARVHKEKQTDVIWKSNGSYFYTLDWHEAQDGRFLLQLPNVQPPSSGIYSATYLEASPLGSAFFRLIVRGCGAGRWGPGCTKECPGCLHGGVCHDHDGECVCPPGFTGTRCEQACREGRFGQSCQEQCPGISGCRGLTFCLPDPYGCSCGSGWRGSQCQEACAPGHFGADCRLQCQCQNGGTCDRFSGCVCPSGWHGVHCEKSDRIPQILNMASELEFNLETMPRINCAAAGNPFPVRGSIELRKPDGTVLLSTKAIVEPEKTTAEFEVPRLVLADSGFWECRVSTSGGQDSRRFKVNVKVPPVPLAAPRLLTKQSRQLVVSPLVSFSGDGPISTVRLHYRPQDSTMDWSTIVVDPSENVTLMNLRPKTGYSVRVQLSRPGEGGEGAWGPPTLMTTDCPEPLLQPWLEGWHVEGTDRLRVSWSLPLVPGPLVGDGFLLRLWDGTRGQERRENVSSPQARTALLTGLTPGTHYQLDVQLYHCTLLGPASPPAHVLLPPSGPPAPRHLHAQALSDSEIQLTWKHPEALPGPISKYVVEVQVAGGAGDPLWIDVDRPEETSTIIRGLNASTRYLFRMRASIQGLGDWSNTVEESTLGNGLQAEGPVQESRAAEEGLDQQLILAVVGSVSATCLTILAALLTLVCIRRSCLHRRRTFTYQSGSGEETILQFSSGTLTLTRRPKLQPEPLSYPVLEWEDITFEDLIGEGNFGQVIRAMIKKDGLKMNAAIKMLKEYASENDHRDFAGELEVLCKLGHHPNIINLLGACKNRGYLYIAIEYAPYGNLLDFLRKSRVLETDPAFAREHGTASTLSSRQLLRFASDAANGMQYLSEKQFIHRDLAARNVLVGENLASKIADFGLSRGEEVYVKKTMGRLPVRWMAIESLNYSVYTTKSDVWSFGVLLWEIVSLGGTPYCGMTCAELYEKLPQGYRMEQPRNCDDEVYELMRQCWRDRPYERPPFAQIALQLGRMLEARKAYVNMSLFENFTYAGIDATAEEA

B1: E3: human anti-Tie1 antibody from Fab phage library; HC SEQ ID NO:114, LC SEQ ID NO:116 (antibody, V domains shown)
VH: EVQLLESGGGLVQPGGSLRLSCAASGFTFSMYGMVWVRQAPGKGLEWVSVISPSGGNTGYADSVKGRFTISRDNSKNTLYLQVNSLRAEDTAVYYCARAPRGYSYGYYYWGQGTLVTVSSASTKGPSVFPLAPSSKSTSGG
VL: DIQMTQSPLSLSASVGDRVTITCRASQGIGHYLAWYQQKPGKVPKLLIYTASTLQSGVPSRFSGSGSGTDFTLTINSLQPEDVATYYCQQFNSYPHTFGQGTRLDIK
modifications: Synthetically generated peptide
binding to HUVEC by confocal microscopy (Tie1): binds specifically to HUVEC
localisation of staining in HUVEC (Tie1): pre-dominantly located inside of the cell
effect of germlining on binding activity (Mouse Tie 1-Fc): minimal impact on the binding activity
